Data taken from publication PMC7847548, “Functional Characterization of the γ-Aminobutyric Acid Transporter from Mycobacterium smegmatis MC^2 155 Reveals Sodium-Driven GABA Transport” (Journal of Bacteriology, 2020).

Molecular target: the molecule itself
Assay: SEC-MALS; SEC-MALLS, three-detector method; Superose 6 column in 20 mM HEPES pH 7.0, 100 mM NaCl, 5% glycerol, 0.0102% DMNPG; 30 ul of MsGabP at 3 mg/ml injected; protein-detergent complex

B1: γ-aminobutyric acid (GABA) permease GabP from Mycobacterium smegmatis MC^2 155 (natural protein, UniProt A0R5H8 1-473, looked up)
chain: MLESRSDLSSSDEPRSGLARSLKTRHMTMIAIGGAIGAGLFVGSGAVIKTAGPAAIVSYVVAGALVLCTLRMLGEMVVAKPRTGAFADYARIGIGPWAGFTLGWLYWYYYVIIIAVEAVAGAQILAVWVGLPLWLMAMLLMAALTLTNLISVRWFGEFEFWFSGIKVAAIVSFIVVGLLWVFGVWPGDTNGLTNLVAHGGFAPNGFGSIFGAVVVVIFAFGGAEIVTIAAAESAEPAKSVARATTGVIWRIILFYVGSIFLVVCILPWNDASVLSSPYVAALEKLQIPGAGLIMNIVILTAVLSVLNSSIYTSSRMLRVLASHGDAPQWLVRTNTRGVPTRAILASTVVGWVSVVLAYIAPDSLFLFLVNSCGVVAIFMYVMIGVSELRVRRAIEREDPAKLTLKMWFFPYLPIAVIACFVLVLVAMLFDADQRVQLLASVVSLAVVLLAYALRKRHGQVPATDTKQAARTDE
notes: GABA permease GabP, Mycobacterium smegmatis MC^2 155, gene msmeg_6196, amplified from genomic DNA and cloned NheI/SbfI into pL33 (based on pTTQ18); predicted molecular mass 50.7 kDa; pL33 encodes a C-terminal His tag preceded by an HRV-3C protease site; the tag was cleaved on the column, so residues of the cleavage site and of the cloning sites may remain; also called MsGabP; gene product of …
stoichiometry N: 2
